The source of these data is a protein production outcome set (Wang et al. 2014).

This series is described as follows: label from the status in PepcDB records.

As to “MLKHCGEFHIALKHLQLALLYTYPSTFSELQVKFQIAHLYEVQNKHKAAKDGYEFLLNEKNISLELKADVYRQLGWMYHCVECLGEKKEREANALNFLQKSIEADPKSGQSLYLLGRCYAGINKVHDAFLAYRNSVEKSEGNADTWCSIGVLYQQQNQPTDALQAYICAVQLDKDHKAAWTNLGILYESCGQLRDAYACYLNATKQISFQKSSLIRKKQAIRMKKDTIGLSKGLSQRITFLEGQLSQAPLPSITSKRRQLCSIEEAWNLPISLEMNSRQQQTAQMLPRQVTKQSPVQGPPPPYPHSQLSQSPIPSKRIKEDGTSQQEVTQNNSQTSAQNLINISESLNQRNFNAMPESNKSSEQSVLDTFDDISNDIYKQNESIKLERLSQDALSNNEDSRHDFIGGDNADISTTFKIQMDSKQLMVAVKLLPIDEPPVHCTILQVNAPPPSPPDCPPQKLTRDQLLPPTPSVHLENKKHAFSPQLQEFCLKHPIAVVRGLAGVLKLDLGLFSTKTLVEANPDHSVEVRTQVHQSPDENWDTSQGKRVWACISHRSHTTIAKYAQYQASSFQDSLKLILPQDESDKGFPGSQAMSDSDSKDSVSNSNIVLKRKKHKINSKMLRFGTNVDLSDEKKWKPQLTELQKLPAFARVISAANMLSHVGHVILGMNTVQLYMKVPGSRTPGHQENNNFCSININIGPGDCEWFAVPDAYWGGVHNLCEKNNISYLHGSWWPVLEDLYKENIPVYRFIQKPGDLVWVNAGCVHWVQSIGWCNNIAWNVGPLTARQYSLAIERYEWNKVQAFKSIVPMVHLSWNLARNIKVSDTKLFELIKMCLLQTLKNVLHIQEYVKSKGVEIRFNGRGKNEASHYCGQCEVEVFNVLFIKEQEKRHVVHCLSCALKLSPSLQGIVCLEEYRLSELQRVYDSFTLHRTQGLAYTQ”, the protein production result is listed as “failed”.
Consider “MLKIRCQACSTILEASYKISYNAQDMKYKNLPVYEQKDRILEMLEHNQVIVVESPTGSGKTTQLPVILHEAGYSRSGMIGVTQPRRIAALSVSEFISKQLKEPMPGLVGYKMRFEDKTSNDTKIKIMTDGILLQELKLDPWLSKYSVILVDEAHERSLNIDFILGLLKRIITERKDFKVIISSATINTDLFSMYFDGCPVIKIDAITYPVTLIFDPPAVKASTDTQEAETALMDKIASIVGRILSEGRSGAILVFLPGERAIKDCIERLSKEPWYRKLFILPLYGRLSKEEQERVFKSPPFGKKKIVISTNIAETSITINDIAAVIDSGLAKLNFYNPFTFTSSLDETLISRASCNQRRGRAGRTQEGVCYRLYTRKDFETRQLYTLEEIYRTDLSEVVMRMAELGILDFENFDFISPPGKKGIIGAIDTLNMLDALESDRSLSSIGKMMCLFPLAPRQSRIIVEAITRYPDLVEEVLIAAAFLSARSPVIFPEGEEIEARKAHALFDEPLGDFASFLKVFRMYSQALDKERFCKIHYLDDRVMAEIANIKEQLELIVSDMGVPILSGGKMEHYLTAIAKGMIQFVCSAQGRDSYRSLTTEKIFIHPGSCMYKEKEQFIVAGEIVRTSRMYAMSVSPLSKKIIEEVAPALLERKDKRAKKEKDEHRADQKEEKKKPEEESVLIEGTRYLIKKIKGKKHLILPWKEFKLTAEAVFKKYSEENQNGALEQLKGLRGKIEINKSELLSGEKMDLILNVVNNFNIEQIEKTEDEKHFDRNKNYFIEEDLEALVNSLNLLFRTTIAKKTTKQLGFITLFCDGTGHFWFKTSRGFHTALHESLVSLQSLIDLAGENFNEDQKIIVRTIYGKMNKMI”, for which the protein production entry is listed as “failed”.
With “MLKKEYLKNPYLVLFAMIVLAYVFSVFCRFYWVWWASEFNEYFFNNQLMIISNDGYAFAEGARDMIAGFHQPNDLSYYGSSLSTLTYWLYKITPFSFESIILYMSTFLSSLVVIPIILLANEYKRPLMGFVAALLASVANSYYNRTMSGYYDTDMLVIVLPMFILFFMVRMILKKDFFSLIALPLFIGIYLWWYPSSYTLNVALIGLFLIYTLIFHRKEKIFYIAVILSSLTLSNIAWFYQSAIIVILFALFALEQKRLNFMIIGILGSATLIFLILSGGVDPILYQLKFYIFRSDESANLTQGFMYFNVNQTIQEVENVDFSEFMRRISGSEIVFLFSLFGFVWLLRKHKSMIMALPILVLGFLALKGGLRFTIYSVPVMALGFGFLLSEFKAILVKKYSQLTSNVCIVFATILTLAPVFIHIYNYKAPTVFSQNEASLLNQLKNIANREDYVVTWWDYGYPVRYYSDVKTLVDGGKHLGKDNFFPSFSLSKDEQAAANMARLSVEYTEKSFYAPQNDILKSDILQAMMKDYNQSNVDLFLASLSKPDFKIDTPKTRDIYLYMPARMSLIFSTVASFSFINLDTGVLDKPFTFSTAYPLDVKNGEIYLSNGVVLSDDFRSFKIGDNVVSVNSIVEINSIKQGEYKITPIDDKAQFYIFYLKDSAIPYAQFILMDKTMFNSAYVQMFFLGNYDKNLFDLVINSRDAKVFKLKI” the entry was “failed”; with “MLKKVIGILVIIAIISVGFFQKEAWLDAIKAGGMFSVLFSMLLIAADVFFPIVPFALIAALNGAVFGTANGIWITLTGSMLGTILLFFLARYSFRDWARKKVQAYPAIQSYEASFNKNAFTAVLLGRLIPVIPSLVMNVICGLSQVRWHVFFFASLIGKIPNIVVVTIAGANFTSNKLLSISIYGTYILIIMLVIYKKFPHLLKVPKK”, “failed”.
With “MLKKVQEHLPRQLLPAPDAITAFCHLIANWSRSELVLALTVDQQGNRAQIITTTSTKFPNLEIIAPWRDLVQGTVIDVLPFLKLPSIFFCLLSKVERIVYIPCGEPEKWCQGLLLVNPVEEPLQQLAEQKGYIAALYRQLLIHHRQSQNSFIFEAQFQDIFDTVPLGLVLIKGDSSTAMVNSYAAQWLQLPPGSHPVQIVAEHMKQGWERCDNCDELVNLFQGLAANANFSAQGECRRGEKTFLIDTHPVRGDSRLGRVWIFSDISDMRQREQALLALAWLDPLTGAFNRRFLLSRVEAYESQAATGEALLTVMIFDIDHFKRINDTYGHDQGDVVLRTLAARAKQVLESCQDGILVRWGGEEFVLLFFVAYEDQAKAVAEELCSVVRSQPVELTDQYSLSVTISLGVTLFRGGEQVLSDSIPRADQALYEAKHGGRDRWVWA” the entry was “failed”.
With “MLKLFKGIYAIFLCVRECIINLFFILFLLTGFASIAFLVNGSDTNKSKEPNEKVALRLNLSGYLTDNHDDFAHRLIQSELTNDESLKASTFDVVRAIGKAAKDPNITGIVLDLSKFEGSDHSSLSFIGSELKAFKTSGKPVIAIGENYSQSQYYLASFADKIYLNKAGSINLQGLNFSSLYFKALLDKIDAVPHIFRVGTYKSAVEPFLRNDMSDEAKQNAQTLLNSIWHQFRTDIAENRMIAVDQVLPEPKSLIEKYKAVNANDAQYALNQKLVTDIGSKAEIEQALIEQFGKNEKGIYQHINYADYALNLTDRFAVNAEHKIAVINVEGEIISGKSKERSAGSETISELLRQAREDNNVDGVILRVNSPGGSVVASEIILQELQSIQQAGKPVVTSMGGLAASGGYWISATSDKIIASPNTITGSIGIFGLAMTFEKTAKHLGISEDGVATSPLAKTSSLQHLSNEHAELIQINIENGYDAFLDLVSRGRNMSKAEVDKVAQGQVWSGEDALKHGLVDQLGDFHTAYDVLTDLINQKRKAKGENEIKHFTAQWFIESDKGLFSSLLKNIGFKAKSTLAVWLGLPFVPQTQQAAELLQKFNDPQNTYLYCLTCGTIK” the entry was “failed”; with “MLKLNLKKSFQKDFDKLLLNGFDDSVLNEVILTLRKKEPLDPQFQDHALKGKWKPFRECHIKPDVLLVYLVKDDELILLRLGSHSELF”, “failed”; with “MLKPVALLTPRPSPSRDPAIPDWLLAGKLEPALPRPAAVVRGALLAALDQAQARPLTLLLAPPGFGKTTLLAQWHAHLSTREQGPVAWLSLDEEDADAARFLGHLALALQNAGADHALCATVLHNRDHDPRDATALLIRALRAAPRRISVILDDYDRLGSSPVDELVLRLIEHSGGRLHLVLATRRVPNLPLARLDLHAQLSRIGSTQLALDNTEAQALLGPHVPTPVVDELRNYTEGWPVALQLARLWLQGDTQRQQEVAARFSGRSAQIAAYLAEQVVNDLDPDTRELLLRTSPLERFNAALADAVRQREDSGRLLARLEHFHGLLVPLDGEREWFRYHPLFADFLQQLLDREHPGQSVQLHQRAARWFGDHQHLAEAVRHAWRGNCGELAASYIARAGTWQLLLTHGTHEVRALLRHFDHRTIRDTPALNLTQAHLHIRLGEFSHARLLLERFRDFPAALREPLQRDYTVVVALLRDRLDEICGNPHGLTQIAAQAGALDEDDHLGRGMLLCICATTAIAQGAFAVAERYARNARDTMQRGGSDVGASQAMLSLGQSLFYRGRLSDAEACYQQALSWCARTPQLDRVLEAAAQCLLAQSHYERGHHDDAADLLHPALELLEQHDGGMDVLAAGYGTALGLERVRDHSGRSALLLLEHIEQIAHGRKLARLSELAAAWRLMLLLEHPGNAAIDVLIARTGGESGLAHTLRSPHRWHDRAAMGFALARWHRLAGRSSAALSILGQIEQACLANDNVCHLARTRARIALVLQQRGELVAALPYLYSALDHVALTQSWQAIVELGLPAKAMLRSLRQHDPQTVGGTTRALTIQALLERLSGDDDPAGDIFSERELEVLAQLARGYSNKQIARCLHLSENTVKFHLKNLYRKLDARSREGALAQALQRGLLRGSNQHADQPLQPD”, “failed”.
For the sequence “MLKQEKIYLVEDDTTIVNLLKNHLGQHYQVKSVDNFRAILQEVKEFKPDLILMDITLPYFNGFYWTTEIRKSMTMPIIFISSADEEMNAVMAMNMGGDDFLSKPFSLPILDAKIAAFLRRANEFTKQGHQIEEFELTLDGVFSNLERQETIQLTPTETKILSLLIDYKGEVVTKEALLNRLWEGEEFIDQNTLSVNMTRLRKKVLSVSFDKIHTVRGVGYLIK”, the protein production entry was “failed”.
For “MLKRCLSPLTLVNQVALIVLLSTAIGLAGMAVSGWLVQGVQGSAHAINKAGSLRMQSYRLLAAVPLSEKDKPLIKEMEQTAFSAELTRAAERDGQLAQLQGLQDYWRNELIPALMRAQNRETVSADVSQFVAGLDQLVSGFDRTTEMRIETVVLVHRVMAVFMALLLVFTIIWLRARLLQPWRQLLAMASAVSHRDFTQRANISGRNEMAMLGTALNNMSAELAESYAVLEQRVQEKTAGLEHKNQILSFLWQANRRLHSRAPLCERLSPVLNGLQNLTLLRDIELRVYDTDDEENHQEFTCQPDMTCDDKGCQLCPRGVLPVGDRGTTLKWRLADSHTQYGILLATLPQGRHLSHDQQQLVDTLVEQLTATLALDRHQERQQQLIVMEERATIARELHDSIAQSLSCMKMQVSCLQMQGDALPESSRELLSQIRNELNASWAQLRELLTTFRLQLTEPGLRPALEASCEEYSAKFGFPVKLDYQLPPRLVPSHQAIHLLQIAREALSNALKHSQASEVVVTVAQNDNQVKLTVQDNGCGVPENAIRSNHYGMIIMRDRAQSLRGDCRVRRRESGGTEVVVTFIPEKTFTDVQGDTHE”, the protein production entry is “failed”.
With “MLKSIRYLLTIIICLFVGACQHTQDNEEPNSIRKVNLSKAASFNVQLGLGYLKQGDRPRAKKKLLTALEQQPDSADVNAALAYYFEQTKELEQAKKFYHKAITLSQNGGAQLNNYGAFLCRQGDYKNAETYFLKAVKDQNYVHTSGAYENAGLCAMAIPDHDKAILYFTKALNQDPSRKESLYELVKLQSKIGHDKEALELLQKHADLVLNDKVMLALAKDIANRTGQYTLAAEYENSFNKLEQTNNISGVNDEYNSSNG” the entry was “failed”; with “MLKVLIQTLILGVLLGASAARAELPADYKVVLLTENFPPFNMAVDDKNFARDDGIDGISADIVREMFRRAGIGYSLSLRFPWDRLYRLTLDKPGYGLFSMTYTPERVPQFKWVGPLADTSWVLLAPAGSKIAVKNLKDAARYKLGAYKNDAVSQHLEAQGIPVINALRDQENVKKLTGGQIDLWATTDPVGRYLAKQEGVSGLQTVLRFNEAKLYLALNKDTPDEVVERLQKALEQMRQEGFVDEAVANYL”, “failed”.
With “MLLAYSMKVVYHLFSGGKDSSLAAWILKKLGYEVKLITITFGVLDNWKFARETAEILGFDHEVIEMPIGILEKATEMCIKEGRAGNAIQYIHERALEYIASREEVKRISDGTRRDDRVPFLDLSKARSLEDRYNVAYIRPLLGLGYKTIRELVNEIFVVVEDESEKVQKGDYETELRELIRRKGHDPSQIFPKRHVQSRVVGLR” the entry was “not failed”.
